These results are taken from patent US20220218659.

This data set concerns the target T1, Human ACLY, His-tagged, bacterially expressed and purified recombinant full length protein, P53396.
T1 chain: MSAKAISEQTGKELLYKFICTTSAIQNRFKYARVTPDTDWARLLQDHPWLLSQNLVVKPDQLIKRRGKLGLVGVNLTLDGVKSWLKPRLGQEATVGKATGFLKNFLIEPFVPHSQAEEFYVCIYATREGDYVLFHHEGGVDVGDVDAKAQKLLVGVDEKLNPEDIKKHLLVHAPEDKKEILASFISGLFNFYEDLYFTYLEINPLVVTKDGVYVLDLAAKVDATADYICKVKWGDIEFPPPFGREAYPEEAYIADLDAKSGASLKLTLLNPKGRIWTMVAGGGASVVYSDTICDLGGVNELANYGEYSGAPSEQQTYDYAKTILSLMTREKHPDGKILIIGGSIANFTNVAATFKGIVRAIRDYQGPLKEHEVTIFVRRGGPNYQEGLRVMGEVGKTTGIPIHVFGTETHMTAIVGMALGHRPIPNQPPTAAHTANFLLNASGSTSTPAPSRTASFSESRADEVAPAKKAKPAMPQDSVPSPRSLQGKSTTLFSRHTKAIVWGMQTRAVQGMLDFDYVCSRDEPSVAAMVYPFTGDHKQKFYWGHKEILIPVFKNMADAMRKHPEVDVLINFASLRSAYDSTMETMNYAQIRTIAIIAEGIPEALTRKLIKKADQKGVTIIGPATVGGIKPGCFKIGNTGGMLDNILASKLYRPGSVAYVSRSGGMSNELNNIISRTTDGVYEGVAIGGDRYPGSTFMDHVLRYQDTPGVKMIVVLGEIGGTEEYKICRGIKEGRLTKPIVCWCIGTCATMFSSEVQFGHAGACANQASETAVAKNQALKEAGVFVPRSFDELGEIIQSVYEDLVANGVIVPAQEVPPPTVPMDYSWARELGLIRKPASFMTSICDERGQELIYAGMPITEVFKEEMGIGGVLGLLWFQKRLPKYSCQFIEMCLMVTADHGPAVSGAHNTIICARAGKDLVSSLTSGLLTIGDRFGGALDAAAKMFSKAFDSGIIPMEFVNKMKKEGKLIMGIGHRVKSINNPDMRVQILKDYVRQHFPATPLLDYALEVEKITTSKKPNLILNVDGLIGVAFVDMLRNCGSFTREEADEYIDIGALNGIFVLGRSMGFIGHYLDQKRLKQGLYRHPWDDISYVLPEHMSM

B1: Active recombinant Lyn kinase (protein)
chain: MGCIKSKGKDSLSDDGVDLKTQPVRNTERTIYVRDPTSNKQQRPVPESQLLPGQRFQTKDPEEQGDIVVALYPYDGIHPDDLSFKKGEKMKVLEEHGEWWKAKSLLTKKEGFIPSNYVAKLNTLETEEWFFKDITRKDAERQLLAPGNSAGAFLIRESETLKGSFSLSVRDFDPVHGDVIKHYKIRSLDNGGYYISPRITFPCISDMIKHYQKQADGLCRRLEKACISPKPQKPWDKDAWEIPRESIKLVKRLGAGQFGEVWMGYYNNSTKVAVKTLKPGTMSVQAFLEEANLMKTLQHDKLVRLYAVVTREEPIYIITEYMAKGSLLDFLKSDEGGKVLLPKLIDFSAQIAEGMAYIERKNYIHRDLRAANVLVSESLMCKIADFGLARVIEDNEYTAREGAKFPIKWTAPEAINFGCFTIKSDVWSFGILLYEIVTYGKIPYPGRTNADVMTALSQGYRMPRVENCPDELYDIMKMCWKEKAEERPTFDYLQSVLDDFYTATEGQYQQQP
For B1, the “ACLY tyrosine residues phosphorylated (phosphoproteomics)” value was “The three ACLY tyrosine residues, Y682, Y252, Y227, were common for Lyn and Src”; the number of ACLY tyrosine residues phosphorylated (in vitro kinase assay, phosphoproteomics) (tyrosine residues) was 6.
